Assay results taken from patent US12534748B2, “Engineered beta-subunit of tryptophan synthase for production of non-canonical amino acids” (California Institute of Technology, priority 2015, dated 2026).

Substrate: c1ccc2[nH]ccc2c1
Test: Tryptophan formation from L-serine and indole, kinetics of TmTrpB double mutant
Assay type: biochemical, Thermotoga maritima
Conditions: other: 75° C., pH 8.0
Procedure: Kinetics and UV-Vis Spectroscopy. Data were collected between 550 and 250 nm on a UV1800 Shimadzu spectrophotometer (Shimadzu) using 0.25-20 μM of enzyme in 200 mM potassium phosphate (pH 8.0) in a quartz cuvette. Samples were incubated at 75° C. for >3 min to ensure a stable temperature was reached. PfTrpB activity (kcat) was measured by monitoring tryptophan formation at 290 nm using Δe290=1.89 mM^−1·cm^−1.
Cloning, expression, and purification of the different orthologs. The genes encoding AfTrpB (UNIPROT ID O28672), TmTrpB (UNIPROT ID P50909) and EcTrpB (UNIPROT ID P0A879) were obtained from IDT and cloned into pET22(b)+ using Gibson Assembly. Protein expression was carried out in E. coli BL21 E. cloni Express cells (Lucigen) by inoculating 10-mL Terrific Broth (with 100 μg/mL ampicillin (TBamp)) with a single colony and incubated over night at 37° C. and 250 rpm. These overnight cultures were used to scale up to 500-mL TBamp expression cultures, which were grown by shaking at 250 rpm and 37° C. for ˜3 h or until an OD600 of 0.8 was reached. Then, after chilling the cultures on ice for 20 min, induction was conducted by the addition of IPTG to a final concentration of 1 mM. Induced cultures were allowed to grow at 250 rpm and 20° C. for another 20 h. After centrifugation, pelleted cells were frozen and stored at −20° C. until further use. […]

B1: Thermotoga maritima TrpB variant M145T N167D (Table 6 prints N167T), SEQ ID NO: 36 (Thermotoga maritima MSB8; M145T/N167D) (protein)
chain: MKGYFGPYGGQYVPEILMPALEELEAAYEEIMKDESFWKEFNDLLRDYAGRPTPLYFARRLSEKYGARIYLKREDLLHTGAHKINNAIGQVLLAKKMGKTRIIAETGAGQHGVATATAAALFGMECVIYMGEEDTIRQKPNVERTKLLGAKVVPVKSGSRTLKDAIDEALRDWITNLQTTYYVIGSVVGPHPYPIIVRNFQKVIGEETKKQILEKEGRLPDYIVACVGGGSNAAGIFYPFIDSGVKLIGVEAGGEGLETGKHAASLLKGKIGYLHGSKTFVLQDDWGQVQVTHSVSAGLDYSGVGPEHAYWRETGKVLYDAVTDEEALDAFIELSRLEGIIPALESSHALAYLKKINIKGKVVVVNLSGRGDKDLESVLNHPYVRERIRLEHHHHHH
  Km: 32 µM
